Laboratory results: the RNAGym collection of RNA variant scans (doi:10.1073/pnas.2313332121)
Fewer inactive variants are shown than the library holds.

B1: TPR 5TU (parent)
chain: GGAUCUUCUCGAUCUAACAAAAAAGACAAAUCUGCCACAAAGCUUGAGAGCAUCUUCGGAUGCAGAGGCGGCAGCCUUCGGUGGCGCGAUAGCGCCAACGUUCUCAACUAUGACACGCAAAACGCGUGCUCCGUUGAAUGGAGUUUAUCAUG

Variants of: B1
Assay: polymerase ribozyme fitness, log enrichment relative to wild type (log ratio); higher = more active; in vitro selection for triplet polymerase activity
Method in brief: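 Each subunit of a heterodimeric triplet polymerase ribozyme was mutagenized into a library by PCR, transcribed, and subjected to one round of in vitro selection, run in triplicate. Libraries were annealed with a biotinylated primer, the partner subunit and triplets, incubated frozen at −7 °C, and extended constructs were gel-excised, captured on streptavidin beads and recovered by RT-PCR. Input and output libraries were sequenced on Illumina, keeping genotypes with ≥10 input reads and ≥1 read per output. Fitness is log base 2 of genotype enrichment divided by wild-type enrichment, from inverse-variance-weighted replicate averages.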

| Variant | polymerase ribozyme fitness (log ratio) |
| --- | --- |
| GGAUCUUCUCGAUCUAACAAAAAAGACAAAUCUGGCACAAAGCUUGCGAGCAUCUUCGGAUGCAGAGGGGGCAGCCGUCGGCGGCGCGAUAGCGCCAACGUUGUCAACUAUGACACGCAAAACGCGUUCGCCGUUGAAUGGAGUUUAUCACG [C35G A47C C69G U77G U82C C103G G128U U130G U151C] | ≤ -4.2 |
| GGAUCUUCUCGAUCUAACAAAAAAGACAAAUCUGACACAAAGCUUGAGAGCAUCUUCGGAUGCAGAGGCGGCAGCCUUCGGUGGCGCGAUAGCGCCAACGUUCUCAACUAUGACACGCAAAACGCAUGCUCCGUUGAAUGGAGUUUAUCAUG [C35A G126A] | -3.51 |
| GGAUCUUCUCGAUCUAACAAAAAAGACAAAUCUGACACAAAGCUUGAGAGCAUCUUCGGAUGCAGAGGCGGCAGCCCUCGGUAGCGCGAUAGCGCCAACGUUCUCCACUAUGACACGCAAAACGCAUGCUCCGGUGAAUGGAGUUUAUCAUG [C35A U77C G83A A106C G126A U134G] | ≤ -4.2 |
| GGAUCUUCUCGAUCUAACAAAAAAGACAAAUCUGACACAAAGCUUGAGAGCAUCUUCGGAUGCAGAGGCGGCAGCCUUCGGUGGCGCGAUAGCGCCAACAUUCUCAACUAUGACACGCAAAACGGGUGCUGCGUUGAAUGGAGUUUAUCAUG [C35A G100A C125G C131G] | ≤ -4.2 |
| GGAUCUUCUCGAUCUAACAAAAAAGACAAAUCUGGCACAAAGCUUGAGAGCAUCUUCGGAUGCAGAGGCGGCAGCCUUCGGUGGCGCGAUAGCGCCAACGUUCUUAACUAUGACACGCAAAACGCGUGAUCCGUUGAAUGGAGUUUAUCCUG [C35G C105U C129A A150C] | -4.14 |
| GGAUCUUCUCGAUCUAACAAAAAAGACAAAUCUGGCACAAAGCUUGAGAGCAUUUUCGGUUGCAGAGGCGGCAGCCUUCGGUGGAGCGAUAGCGCCAACGUUCUCAACUAUGACACGCAAAACGCGUGCUCCGUUGAAUGGAGUUUAUCAUG [C35G C54U A60U C85A] | ≤ -4.2 |
| GGAUCUUCUCGAUCUAACAAAAAAGACAAAUCUGGCACAAAGCUUGAUAGCAUCUUCGGAUGCAGAGGCAGCAGCCUUCGGUGGCGCGAUACCGCGAACGUUCUCAACUAUGACACGCAAAACGCGUGCUCCGUUGAAUGGAGUUAAUCAUG [C35G G48U G70A G92C C96G U146A] | ≤ -4.2 |
| GGAUCUUCUCGAUCUAACAAAAAAGACAAAUCUGGCACAAAGCUUGAGAGCAUCUUCGGAUGCAGAGGCGGCAGCCUUCGGUGGGGCGAUAGCGCCAACGUUCUCAACUAUGACACGCAAAACGCGUGCUCCGAUAAAUGGAGUUUAUCAUG [C35G C85G U134A G136A] | ≤ -4.2 |
| GGAUCUUCUCGAUCUAACAAAAAAGACAAAUCUGACACAAAGCUUGAGAGCAACUUCGGAACCGGCGGCGGCAGCCUUCGGUGGCGGGAUAGCGCCAACGUUCUCAACUAUGACACGCAAAACGCGUGCUCCGUUGAAUGGAGUUUAUCAUU [C35A U53A U61A G62C A64G A66C C87G G152U] | ≤ -4.2 |
| GGAUCUUCUCGAUCUAACAAAAAAGACAAAUCUGGCACAAAACUUGAGAGCAUCUUCGGAUGCAGAGGCGGCAGCCUUCGGUGGCGCGAUAGCGCCAACGUUCUCAACUAUGACACGCAAAACGCGUGCGACGUUGAAUGGAGUUUAUCAUG [C35G G42A U130G C131A] | -4.12 |
| GGAUCUUCUCGAUCUAACAAAAAAGACAAAUCUGGCACAAAGCUUGAGAGCAUCUUCGGAUGCAGAGGCGGCAGCAUUCGGUGGCGCGAUAGCGCCAACGUUCUCAACUAUGACACGCAAAACGCGUGCUCCGUUGAAUGGAGUUUAUCAUG [C35G C76A] | -4.13 |
| GGAUCUUCUCGAUCUAACAAAAAAGACAAAUCUGGCACAAAGCUUGAGAGCAUCUUCGGAUGCAGAGGCGGCAGCUUUCGGUGGCGCGAUAGCGCCAACGUUCUCAACUAUGACACGCAAAACGCGUGCUCCGUUGAAUGGAGUUUAUCAUG [C35G C76U] | -3.99 |
| GGAUCUUCUCGAUCUAACAAAAAAGACAAAUCUGGCACAAAGCUUGAGAGCAUCUUCGGAUGCAGAGGCGGCAGCCUUCGGUGGAGCGAUAGCGCCAACGUUCUGAACUAUGUCACGCAAAACGCGUGCUCCGUUGAAUGGAGUUUAUCAUG [C35G C85A C105G A113U] | ≤ -4.2 |
| GGAUCUUCUCGAUCUAACAAAAAAGACAAAUCUGACACAAAGCUUGAGAGCAUCUUCGGAUGCAGAGGCGGCAGCCUUCGGUGGCGCGAUAGCGCCAACGUUCUCAACUAUGACACGCAAAACGCGUGCUCCGUUGAAUGGAGUUAAUCAUG [C35A U146A] | -3.32 |
| GGAUCUUCUCGAUCUAACAAAAAAGACAAAUCUGACACAAAGCAUGAGAGCAUCUUCGGAUGUAGAGGCAGCAGCCUUCCGUGGCGGGAUAGCGCCAACGUUCUCAACUAUGACACGCAAAACGCGUGCUCCGUUGAAUGGAGUUUAUCAUG [C35A U44A C63U G70A G80C C87G] | ≤ -4.2 |
| GGAUCUUCUCGAUCUAACAAAAAAGACAAAUCUGGCACAAAGCUUGAGAGCAUCUUCGGAUGCAGAGGCGGCAGCCUUCGGUGGCGUGAUAGCGCCAACGUUCUCAACUAUGACACGUAAAACGCGUGCUCCGUUGAAUGGAGUUUAUCAUG [C35G C87U C118U] | -4.18 |
| GGAUCUUCUCGAUCUAACAAAAAAGACAAAUCUGGCACAAAGCUUGAGAGCAUCUUCGGCUGCAGAGGCGGCAGCCUUCGGUGGCGCGAUAGCGCCAACGUUCUCAACUAUGACACGCAAAACGCGUGCUCCGUUGAAUGGAGUUUAUCAUG [C35G A60C] | -3.99 |
| GGAUCUUCUCGAUCUAACAAAAAAGACAAAUCUGACACAAAGCUUGAGAGCAUCUUCGGAUGCAGAGGCGGCAGCCUUCGGUGGCGCGAAAGCGCCAACGUUCUCAACUACGACACGCAAAACGCGUGCUCCGUUGCAUGGAGUUUAUCAUG [C35A U90A U111C A137C] | ≤ -4.2 |
| GGAUCUUCUCGAUCUAACAAAAAAGACAAAUCUGGCACAAAGCUUGAGAGCAUAUACGGAUGCAGAGGCGGCAGCCUUGGGUGGCGCGAUAGCGCCAAUGUUCUCAACUAUGACACGCAAAACGCUUGCUCCGUUGAAUGGAUUUUAUCAUG [C35G C54A U56A C79G C99U G126U G143U] | ≤ -4.2 |
